Patent publication US9902783B2, “Antibodies and pharmaceutical compositions containing same useful for inhibiting activity of metalloproteins” (Yeda Research and Development Co. Ltd., priority 2007, dated 2018)

How the values were obtained:
[1] = test system: DSS-induced colitis; assay: DSS induced acute colitis in mice; format: in vivo, C57BL/6 mice; settings: for reduction in colon length: 11 days after DSS induction, versus naïve mice
Experimental: FIGS. 15A-15C are graphs illustrating the effect of 6C6 treatment on the various manifestations of acute DSS colitis in C57BL/6 mice. Disease was induced by 2% DSS for 5 days. 6C6 treatment, 5 or 1.5 mg/kg mouse, was administered by daily i.p. injection starting from day 0. FIG. 15A: Clinical score was evaluated by daily monitoring of DAI (which is the combined score of body weight, rectal bleeding and stool consistency, on a scale of 0-4). Data are expressed as the dot distribution of a mean for each animal of days 6 to 10. FIG. 15B: Colon length. FIG. 15C: Mortality. The data presented are the combined results of two experiments, with a total of 15 mice per group.*, significant effect over colitis-untreated mice (p<0.05).
To explore the inhibitory activity of 6C6, the ability of mAb treatment to ameliorate DSS induced acute colitis was examined Specifically, 2% DSS was provided to the highly susceptible mouse strain C57BL/6 for five days. 6C6 treatment was given daily by intraperitoneal injections of 1.5 or 5 […], starting at the day of induction. Mice exposed to 2% DSS developed symptoms of acute colitis, with diarrhea, rectal bleeding and severe weight loss.

[2] = molecular target: T1, catalytic zinc ion of MMP9 (Homo sapiens, UniProt P14780); assay: X-ray absorption spectroscopy of MMP9-6C6 complex; settings: zinc K edge XAS, MMP-9 catalytic domain-mAb complex
T1 construct: lacking the hinge region and the hemopexin domain, Ala1-Gly424 |P14780|MMP9_HUMAN; made in house
T1 sequence (P14780 94-444): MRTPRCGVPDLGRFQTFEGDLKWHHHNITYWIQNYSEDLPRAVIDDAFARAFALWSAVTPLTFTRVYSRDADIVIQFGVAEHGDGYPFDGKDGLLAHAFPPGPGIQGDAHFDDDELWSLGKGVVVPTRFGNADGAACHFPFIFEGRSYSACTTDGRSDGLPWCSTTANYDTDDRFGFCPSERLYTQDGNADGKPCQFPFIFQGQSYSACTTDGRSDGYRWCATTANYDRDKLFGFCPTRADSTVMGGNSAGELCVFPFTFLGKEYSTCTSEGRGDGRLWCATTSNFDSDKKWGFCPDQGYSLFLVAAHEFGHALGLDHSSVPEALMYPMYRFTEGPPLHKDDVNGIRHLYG
Source text: FIG. 16 is a graph of results from X-ray absorption spectroscopy at the zinc K edge of active MMP9 (black) and inhibited MMP9-6C6 complex (red). The results are presented in the form of radial distribution from the zinc ion. The edge position the MMP-9 catalytic domain-mAb complex (red) shifts to a higher energy relative to active MMP-9 (inset) indicating binding to the catalytic zinc ion. […] Remarkably, this mode of binding is analogous to the binding of TIMPs at the active site of MMPs.
In order to further study the differences between active MMP9 and an inhibited MMP9-6C6 complex, X ray absorption spectroscopy was performed. […] The data is presented in the form of Fourier transform (FT) spectra to provide the radial distribution of the various atoms within the first and second coordination shells of the catalytic zinc ion in MMP9. Apparent change in the radial distribution spectra of the free and inhibited enzyme can be observed above the noise level. These spectral changes indicate that the local environment of the catalytic zinc ion undergoes structural changes upon binding to 6C6. The observed deviation in both spatial distribution and peak intensities of the FT spectral features between the active and the inhibited enzyme indicate unequivocally that the local structure of the catalytic zinc changes upon mAb complex formation.

B1: 6C6: monoclonal antibody, IgG2a, raised against the hapten Imisdp; MMP-2 and MMP-9 inhibitory; SEQ ID NO: 1 (protein)
chain: CMETTQTPLSLPVSLGDQASISCRSSQSIVHSNGNTFLEWYLQKPGQSPKLLIYKVSNCRFSGVPDRFSGSGSGTDFTLKISRVEAEDLGVYYCFQASHVPPTFGGG
modifications: 6c6 mAb light chain
B1 was tested, and the “reduction in colon length” value ([1]; 1.5 mg/kg mouse daily i.p.) was 22%, the “reduction in colon length” value ([1]; 5 mg/kg mouse daily i.p.) was 16% and the “disease activity index (DAI)” value ([1]; 2% DSS 5 days, daily i.p. mAb from day 0, versus untreated control) was “decreased disease activity”. For the same molecule, the mortality rate ([1]; 11 days after induction, 6C6 treated mice) was 33% and the “binding mode at the catalytic zinc ion” value [2] was “directly binds the zinc ion”.
